For the data set, the system named is MS2 coat protein. The experiment in a line: apparent KD of MS2 coat protein; designed switch direction (-1 OFF switch, 1 ON switch): -1; higher = weaker reporter binding. The method in brief:
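For each design, the apparent KD is the median over clusters of curves fitted to normalised cluster fluorescence. Clusters held RNA switches with common flanks, transcribed on Illumina chips by stalled E. coli RNA polymerase. These were titrated with SNAP-549-labelled MS2 coat protein, doubling from 0.7 or 1.5 nM to 3 µM, without input, with 200 uM small-molecule ligand, or with an oligonucleotide input.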

[1] abbreviates: Eterna round: R95, input ligand: FMN 200 uM.
The mark [2] stands for this setting: Eterna round: R95, input ligand: microRNA oligo, concentration not stated.
[3] abbreviates: Eterna round: R95, input ligand: none.
[4] abbreviates: input ligand: microRNA oligo, concentration not stated.

Consider “GCCGGUGAUCUAACCCGUAACAUGAGGAUCACCCAUGUAAGCUCGGGUUCUACAGAACCCGAUAUUAGCUCGUCAGU [Eternabot (Original) Solution 3] (Eterna round: R97, puzzle: Sensor, turn-off variant 1)”, for which the “apparent KD of MS2 coat protein” value runs as follows: (input ligand: FMN 200 uM) 599 nM; (input ligand: none) 894 nM.
“GCCGGUGUUGCGGAUAAGCUUUUCUGCUCGUUUUAUCGCACAUGAGGAUCACCCAUGUCAUCCGUCAGCAUGCAAAC [Aredardi] (puzzle: Sensor v3, turn-off variant 2)”: the “apparent KD of MS2 coat protein” value under setting [1] was 26 nM, the “apparent KD of MS2 coat protein” value under setting [2] is 40.7 nM and the “apparent KD of MS2 coat protein” value under setting [3] is 25.6 nM.
Consider “GCCGUGUCAGGAUAUCGGCGGCUAUAAGUGUACGUACCUUUCGAGAAGGGACAUGAGGAUCACCCAUGUAAAUC [Eternabot (L1) Solution 25] (Eterna round: R97, puzzle: Exclusion 4)”, for which the “apparent KD of MS2 coat protein” value came out at 29.9 nM (input ligand: FMN 200 uM) and 28.9 nM (input ligand: none).
For “GCCUAUGUGGAGGAUAUCGACUUCGAAAGAAGUCGAGAAGGCCACACAUGAGGAUCACCCAUGUGGUGCCAGGC [Omei Ex6 H13] (Eterna round: R97, puzzle: Exclusion 6)” the same measures were 336 nM and 293 nM.
For the sequence “GCCUCACAUGAGGAUCACCCAUGUCAGGAUAUACCCAUCCAGCGAAAUAAACGCUGUAGUAGAAGGGACAUGCA [Anlaat] (Eterna round: R97, puzzle: Exclusion 1)”, the “apparent KD of MS2 coat protein” value runs as follows: (input ligand: FMN 200 uM) 40.3 nM; (input ligand: none) 15.3 nM.
Taken in the same sequence, the figures for “GCCUCACUUGAGGAUCACCCAAGUCAGGAUAUUCACUGAACUGCGUAGCAAUUCGGCCGAAGAAGGGAUUCGGG [Veala] (Eterna round: R97, puzzle: Exclusion 1)” were 75.2 nM and 107 nM.
As to “GCCUGUGCCCUAGGAUAUCGCCCAGCCAAUGGAUGAGAAGGAGGCGGGUGAAACAUGAGGAUCACCCAUGUAAACGCACAAGCA [Inusri] (Eterna round: R96, puzzle: Exclusion NG 1)”, the “apparent KD of MS2 coat protein” value came to 102 nM (input ligand: FMN 200 uM), 14.5 nM under setting [4] and 22.7 nM (input ligand: none).
Consider “GCCUUAUCUGUCAGGAUAUACAAUAAAAUAAUUAAGUAGAAGGGACAUGAGGAUCACCCAUGUACAUUACAUUG [alecazam26] (Eterna round: R97, puzzle: Brourd's mod of Exclusion 4)”, for which the “apparent KD of MS2 coat protein” value reads like this: (input ligand: FMN 200 uM) 67.4 nM; (input ligand: none) 17.9 nM.
Taken in the same sequence, the figures for “GCCUUGGGAGUCAGGAUAUACAAUAAAAUAAUUAAGUAGAAGGGACAUGAGGAUCACCCAUGUACAUUACAUUG [alecazam30] (Eterna round: R97, puzzle: Brourd's mod of Exclusion 4)” were 48 nM and 13.3 nM.
As to “GCGAAAGAAAACAGGUGAAACAUGAGGAUCACCCAUGUCCUCAUUUGCUCGUCUUAUAAGCUAUGCGAAAGCAUAGC [Mat - Sensor v3 - turn-off var 1 - Eli Mod - D52] (puzzle: Sensor v3, turn-off variant 1)”, the “apparent KD of MS2 coat protein” value runs as follows: under setting [1], 173 nM; under setting [2], 391 nM; under setting [3], 218 nM.
On to “GCGAAAGCAAGCAAGUGAAACAUGAGGAUCACCCAUGUCCUCAUUUGCUCGUCUUAUAAAAGCUAUCGAAAGAUAGC [Sensor 3, v1 - 1] (puzzle: Sensor v3, turn-off variant 1)”, for which the “apparent KD of MS2 coat protein” value is 11.6 nM under setting [1], 172 nM under setting [2] and 13.5 nM under setting [3].
For “GCGAAAGCAAGCAAGUGAAACAUGAGGAUCACCCAUGUCCUCAUUUGCUCGUCUUGUAAGCUAUGCGAAAGCAUAGC [Sensor 3, v1 - 5] (puzzle: Sensor v3, turn-off variant 1)” the same measures were 12.1 nM, 53.3 nM and 11.9 nM.
As to “GCGCAAACGCCAAAAGGCGAAACAACAUGAGGAUCACCCAUGUAGGAUAUCGAUUGCUUUGCAGUCGAGAAGGACAUAAUGCGC [JL ENG3 3.80 Mod 3] (Eterna round: R96, puzzle: Exclusion NG 3)”, the “apparent KD of MS2 coat protein” value under setting [4] was determined as 11.9 nM.
In the case of “GCGCAAAGCUAGGAUAUCCAGGGAUCUUCCCGCGGAGAAGGAGCCACAUGAGGAUCACCCAUGUGGUGAUCCUG [eternacac ex6r4 sub7] (Eterna round: R97, puzzle: Exclusion 6)”, the “apparent KD of MS2 coat protein” value (input ligand: FMN 200 uM) was 14.9 nM and the “apparent KD of MS2 coat protein” value (input ligand: none) came out at 15.4 nM.
For “GCGCACCUACCAAAAGGUAGGCCGACAUGAGGAUCACCCAUGUAGGAUAUCGAUUGCUUUGCAGUCGAGAAGGACAUGAUGCGC [JL ENG3 3.80 Mod 9] (Eterna round: R96, puzzle: Exclusion NG 3)”, the “apparent KD of MS2 coat protein” value is 35.8 nM (input ligand: FMN 200 uM), 11.6 nM under setting [4] and 19 nM (input ligand: none).
As for “GCGCACUAAGUGAGGAUAUCGUUUAUUUAUAGGAUCGAGAAGGCACAUGAGGAUCACCCAUGUUAAACGUGCGC [JR_BMOE4_Sub100] (puzzle: Brourd's mod of Exclusion 4)”, the “apparent KD of MS2 coat protein” value under setting [2] was found to be 15.7 nM.
Turning to “GCGCCAUCGUGAGAUGGCGUAAUUACAUGAGGAUCACCCAUGUAGGAUAUCGAUUGCUUUGCAGUCGAGAAGGACAUGAUAAUU [JL ENG3 3.80] (Eterna round: R96, puzzle: Exclusion NG 3)”, the “apparent KD of MS2 coat protein” value amounted to 104 nM (input ligand: FMN 200 uM), 25 nM under setting [4] and 33.7 nM (input ligand: none).
For “GCGCCAUCGUGAGAUGGCGUAAUUACAUGAGGAUCACCCAUGUAGGAUAUCGAUUGCUUUGCAGUCGAGAAGGGCAAGGUUUGU [JL ENG3 3.84] (Eterna round: R96, puzzle: Exclusion NG 3)” the same measures were 25.7 nM, 19.9 nM and 30.9 nM.
On to “GCGGACAAGAUCGUGAGAUCAGAGACAUGAGGAUCACCCAUGUAGGAUAUCGAUUCGAAACGAAUCGAGAAGGGCAUAGUCCGC [JL denovo 6] (Eterna round: R96, puzzle: Exclusion NG 3)”, for which the “apparent KD of MS2 coat protein” value runs as follows: (input ligand: FMN 200 uM) 20.5 nM; under setting [4], 14.9 nM; (input ligand: none) 19.8 nM.
As for “GCGGACUAGAACGUGAGUUCUGAGACAUGAGGAUCACCCAUGUAGGAUAUCGAUUCGUUUCGAAUCGAGAAGGGCAUAGUCCGC [JL denovo 12] (Eterna round: R96, puzzle: Exclusion NG 3)”, the “apparent KD of MS2 coat protein” value reads like this: (input ligand: FMN 200 uM) 21.3 nM; under setting [4], 14.2 nM; (input ligand: none) 20.3 nM.
Taken in the same sequence, the figures for “GCGGAUUAUGUAGGAUAUCGGUCAGUUUCUGAUCGAGAAGGACAUGAGGAUCACCCAUGUAAAUUGCCCGCUUUGUGGGUCCGC [JL ENG1 3.62] (Eterna round: R96, puzzle: Exclusion NG 1)” were 41.7 nM, 15 nM and 15.7 nM.
On to “GCGUACUGAGGAUAUACAUGAGGAUCACCCAUGUAACACAGCAUAUAUAGAUAUUUUUGUAGAAGGCAGUAUGC [JR_Ex3_Sub057] (Eterna round: R97, puzzle: Exclusion 3)”, for which the “apparent KD of MS2 coat protein” value is, setting by setting: (input ligand: FMN 200 uM) 40.2 nM; (input ligand: none) 17.5 nM.
Taken in the same sequence, the figures for “GCGUACUGAGGAUAUACAUGAGGAUCACCCAUGUAACACAGCAUAUGUGAAGUUUUUUGUAGAAGGCAGUAUGC [JR_Ex3_Sub056] (Eterna round: R97, puzzle: Exclusion 3)” were 180 nM and 28.7 nM.
As to “GCGUACUGAGGAUAUACAUGAGGAUCACCCAUGUGAAGAAGAAAGUAGUGAUGGUUAAGUAGAAGGCAGUAUGC [JR_Ex3_Sub063] (Eterna round: R97, puzzle: Exclusion 3)”, the “apparent KD of MS2 coat protein” value is, setting by setting: (input ligand: FMN 200 uM) 411 nM; (input ligand: none) 113 nM.
For “GCGUCGAGUGUGAGGAUAUGCUGGUCAUAAGAUCAGCAGAAGGCACAUGAGGAUCACCCAUGUGAAAACGAUGC [Mat - Exclusion 4 - JL Mod - D69] (puzzle: Brourd's mod of Exclusion 4)”, the “apparent KD of MS2 coat protein” value is, setting by setting: under setting [1], 73.2 nM; under setting [2], 16.3 nM; under setting [3], 20.6 nM.
Regarding “GCGUUCUGAGGAUAUACAUGAGGAUCACCCAUGUUGAGAAAUAAGAAUAAGCCCUUAAGUAGAAGGCAGAGUGC [JR_Ex3_Sub073] (Eterna round: R97, puzzle: Exclusion 3)”, the “apparent KD of MS2 coat protein” value runs as follows: (input ligand: FMN 200 uM) 105 nM; (input ligand: none) 27.8 nM.
“GCGUUUUGGUGAGGAUAUCGGCCCGAAACCGGGCAACAUGAGGAUCACCCAUGUACGUGAUCCUGCGAGAAGGCACCGAUUAUA [Bedi] (Eterna round: R96, puzzle: Exclusion NG 2)”: the “apparent KD of MS2 coat protein” value runs as follows: (input ligand: FMN 200 uM) 990 nM; under setting [4], 60.7 nM; (input ligand: none) 964 nM.
On to “GCUAAGAGUGUGAGGAUAUGCUGGUCCUUGGAUCAGCAGAAGGCACAUGAGGAUCACCCAUGUGAAAACUUAGC [Mat - Exclusion 4 - JL Mod - D64] (puzzle: Brourd's mod of Exclusion 4)”, for which the “apparent KD of MS2 coat protein” value under setting [2] came to 19.9 nM.
“GCUAGAGCAGGAUAUCGAGAUCCGCACAUGAGGAUCACCCAUGUACGGUCGAAAGACCGACGAGAAGGGCUCUAGC [Omei Ex5 E10] (Eterna round: R97, puzzle: Exclusion 5)”: the “apparent KD of MS2 coat protein” value amounted to 178 nM (input ligand: FMN 200 uM) and 186 nM (input ligand: none).
As to “GCUAGAGCAGGAUAUCUAGAUCCACACAUGAGGAUCACCCAUGUAUAGUCGAAAGACUAAAGAGAAGGGCUCUAGC [Omei Ex5 E14] (Eterna round: R97, puzzle: Exclusion 5)”, the “apparent KD of MS2 coat protein” value stood at 72.7 nM (input ligand: FMN 200 uM) and 61.8 nM (input ligand: none).
